What is called Kd is the free concentration of one partner at which half of the binding sites on the other are occupied at equilibrium, for simple one-to-one binding. Low readings indicate higher affinity, high ones lower affinity.

Read-outs that look alike come from different tables or passages of the source. Where only a bound is given, the exact number is not on record here.

In patent US20250019422A1 (MAX PLANCK GESELLSCHAFT ZUR F RDERUNG DER WISSENSCHAFTEN E V, published 2025) one finds Kd data, which are given here for 4 molecules.

For test [1], the target named is B.1.617.2/Delta.
Test [2] concerns the target T1, RBD of the SARS-CoV-2 Omicron variant BA.2.75 (SARS-CoV-2 Omicron variant BA.2.75).
The target of test [3] is B.1.617.2/Delta. This is another data set of the same source.
The target in test [4] is T1, RBD of the SARS-CoV-2 Omicron variant …. This is another data set of the same source.

B1: Re6H06 (VHH)
VHH: QVQLVESGGGLVQPGGSLRLSCAASGVTLDYYAIGWFRQAPGKEREGVSCTSSSDGSTYYADSVKGRFTISRDNAKNTVYLQMNSLKPEDTGVYYCAVVPQTYYGGKYYSQCTANGMDYWGKGTLVTVSS
Turning to B1, the Kd was 0.1 nM in test [1] and no less than 1000 nM in test [2].

B2: Re32D03 (VHH)
VHH: QVQLVESGGGLVQPGGSLRLSCAISGITLDYYAVGWFLQAPGKEREGISCMRNWDGRTVYAPSVKGRFTISSDNAKKMVYLEMDNLKSEDTGVYYCAAGPLPPGISCRIPTPLGYDDWGQGTQVTVSS
Turning to B2, the equilibrium dissociation constant (Kd) is no more than 0.01 nM in test [3] and 0.35 nM in test [4].

B3: Re5D06 (VHH)
VHH: QVQLVESGGGLVQPGGSLRLSCAASGITLDYYAIGWFRQAPGKEREGVSRIRSSDGSTNYADSVKGRFTMSRDNAKNTVYLQMNSLKPEDTAVYYCAYGPLTKYGSSWYWPYEYDYWGQGTQVTVSS
As to B3, the affinity in test [1], expressed as Kd, was 0.2 nM. This counts as sub-nanomolar.

B4: Re9B09 (VHH)
VHH: QVQLVESGGGLVQPGGSLRLSCAASGFTLDYYAIGWFRQAPGKEREGVSRISSSDGSTDYADSVKGRFTISRDNAKNTVYLQMNSLKPEDTAVYYCATVPGTYYSGNWYYTWHPEAVDYWGKGTQVTVSS
notes: also called ReB09
For B4, the Kd stood at 0.3 nM in test [3] and 2 nM in test [4].
